From article PMC4680927

Legend:
[1] = target: full-length β-N-acetylglucosaminidase from Rhizomucor miehei (RmNag) (Rhizomucor miehei); assay: SEC; size-exclusion chromatography of full-length RmNag; native molecular mass approx. 230 kDa; data not shown
[2] = target: N-acetyltransferase C-terminal region (CTR) of RmNag (Rhizomucor miehei); assay: not stated; NTR and CTR 'in solution'; the sentence names no method (it follows the SEC estimate for the full-length protein)

Substance	stoichiometry N [1]	stoichiometry N [2]
full-length β-N-acetylglucosaminidase from Rhizomucor miehei (RmNag) (enzyme)	2	
N-acetyltransferase C-terminal region (CTR) of RmNag (domain or fragment)		2
